A word on the stoichiometry N: it is the number of molecules, sites or subunits per partner or assembly.

Experimental findings from paper PMC11834968 (RSC Chemical Biology, 2025) are described below.

Assay [1] deals with Human recombinant fibroblast activation protein alpha (human, UniProt Q12884, glycosylated (sites not given)). Kind of assay: cross-linking + other: mass photometry.
The target of assay [2] is Biotinylated dipeptidyl peptidase IV (DPP4) (Homo sapiens, UniProt P27487, biotin (site not given)). Briefly: BLI. A general note: Biolayer interferometry detects binding as a change in optical thickness at a sensor tip.
Biotinylated dipeptidyl peptidase IV (DPP4), sequence (P27487 39-766): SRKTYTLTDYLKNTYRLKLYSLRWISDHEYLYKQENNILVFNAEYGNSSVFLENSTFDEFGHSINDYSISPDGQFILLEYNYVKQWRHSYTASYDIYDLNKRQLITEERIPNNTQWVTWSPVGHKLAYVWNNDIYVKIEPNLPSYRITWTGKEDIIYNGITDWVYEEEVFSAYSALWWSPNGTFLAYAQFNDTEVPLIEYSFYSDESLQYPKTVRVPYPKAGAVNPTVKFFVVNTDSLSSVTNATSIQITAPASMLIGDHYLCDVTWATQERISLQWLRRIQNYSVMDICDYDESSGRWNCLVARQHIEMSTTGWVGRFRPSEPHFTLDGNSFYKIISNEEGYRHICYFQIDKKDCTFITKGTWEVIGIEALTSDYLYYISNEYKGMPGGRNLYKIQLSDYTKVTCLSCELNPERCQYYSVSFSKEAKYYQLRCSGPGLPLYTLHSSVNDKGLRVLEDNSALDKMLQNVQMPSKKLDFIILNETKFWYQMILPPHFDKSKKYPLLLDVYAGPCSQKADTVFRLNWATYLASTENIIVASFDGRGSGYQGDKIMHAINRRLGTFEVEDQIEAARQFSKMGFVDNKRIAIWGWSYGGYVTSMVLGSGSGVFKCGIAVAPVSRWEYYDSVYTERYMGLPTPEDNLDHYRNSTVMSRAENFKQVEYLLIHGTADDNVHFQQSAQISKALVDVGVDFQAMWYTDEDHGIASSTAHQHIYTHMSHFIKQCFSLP

Human recombinant fibroblast activation protein alpha, sequence (Q12884 27-760): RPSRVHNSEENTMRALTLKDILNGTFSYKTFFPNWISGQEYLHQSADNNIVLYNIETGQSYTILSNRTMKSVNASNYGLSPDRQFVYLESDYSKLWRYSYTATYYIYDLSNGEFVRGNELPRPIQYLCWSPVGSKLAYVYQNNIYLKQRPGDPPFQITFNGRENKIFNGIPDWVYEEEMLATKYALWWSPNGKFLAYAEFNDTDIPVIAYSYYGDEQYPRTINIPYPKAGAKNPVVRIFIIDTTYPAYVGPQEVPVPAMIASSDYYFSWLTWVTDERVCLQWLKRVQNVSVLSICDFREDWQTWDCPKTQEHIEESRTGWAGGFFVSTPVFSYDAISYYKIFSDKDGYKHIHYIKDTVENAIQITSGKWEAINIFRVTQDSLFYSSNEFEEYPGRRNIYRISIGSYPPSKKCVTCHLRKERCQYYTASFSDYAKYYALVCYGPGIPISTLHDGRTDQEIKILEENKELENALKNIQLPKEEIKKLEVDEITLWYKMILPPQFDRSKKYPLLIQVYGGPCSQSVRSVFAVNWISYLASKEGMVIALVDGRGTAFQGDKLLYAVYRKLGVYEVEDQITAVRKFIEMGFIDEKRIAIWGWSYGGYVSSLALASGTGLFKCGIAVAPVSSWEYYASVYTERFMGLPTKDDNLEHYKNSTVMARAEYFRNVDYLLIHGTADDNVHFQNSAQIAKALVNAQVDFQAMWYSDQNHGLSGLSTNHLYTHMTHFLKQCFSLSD

B1: SUMO-I3 (single domain antibody I3 fused to an N-terminal 6X His-SUMO-FLAG tag) (VHH)
VHH: EVQLVESGGGLVQPGGSLRLSCAASGFTFSSYAMSWVRQAPGKGLEWVSAINSGGGSTSYADSVKGRFTISRDNAKNTLYLQMNSLKPEDTAVYYCAKARTGWSLAVPSFGSWGQGTQVTVSS
On to B1, for which, in assay [1], the “stoichiometry N” value is 1.

B2: MBP-I3 (single domain antibody I3 with N-terminal MBP fusion and C-terminal 6X His-tag) (VHH)
VHH: B1 VHH
On to B2, for which, in assay [2], the binding result was “no binding”.
